The supplement of paper PMC10724198
± gives the standard deviation of the averaged measurements.

Test system: Saccharomyces cerevisiae
Experiment: protein stability index of tFT-peptide fusion (C-terminal peptide) (PSI (0-1 scale)); higher = more stable (slower turnover)
Conditions: genetic background: wild type; temperature: 30 C
Procedure: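 Multiplexed protein stability (MPS) profiling in S. cerevisiae. Random 12-aa peptides (tFT-X12 library) are fused to the C-terminus of a sfGFP-mCherry tandem fluorescent timer, after mCherry and a GGGS linker. Cells are FACS-sorted into 8 mCherry/sfGFP bins and deep-sequenced. The protein stability index (PSI) is the read-weighted bin average, scaled from 0 (unstable) to 1 (stable). Only peptides with >10 reads are reported; cells were grown at 30 °C in SC-His with glucose.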
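Note: PSI is a weighted mean of sequencing reads over stability bins, variants kept only with over 10 reads, mCherry proximal and sfGFP distal, peptide attached via GGGS linker.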

| Sequence | protein stability index |
| --- | --- |
| CRRHPLTVVPIL | 0.619 ± 0.028 |
| CRVSIVPIKRYS | 0.578 ± 0.099 |
| CRVVRGGEGLGG | 0.652 ± 0.0081 |
| CRWLGELGVWVF | 0.637 ± 0.062 |
| CSCSTFWFFFGR | 0.724 ± 0.026 |
| CSGEGDQWLGVR | 0.7139 ± 0.0028 |
| CSGFPPPPHSSL | 0.6812 ± 0.00089 |
| CSGLTLLRFFVW | 0.654 ± 0.064 |
| CSGPARERPVRF | 0.709 ± 0.062 |
| CSLLFSLNLMPS | 0.666 ± 0.063 |
| CSLPPSPAVPPP | 0.644 ± 0.022 |
| CSLQCLGWPISS | 0.739 ± 0.087 |
| CSNGVPLTVLLM | 0.525 ± 0.0057 |
| CSRFPYSHSLSQ | 0.716 ± 0.016 |
| CSRLDVSEVVGD | 0.663 ± 0.074 |
| CSSVGGYGGFEV | 0.616 ± 0.013 |
| CSVCMSSSRLFS | 0.733 ± 0.014 |
| CTGDLSHVLFGI | 0.725 ± 0.016 |
| CTTSCARWVTTW | 0.647 ± 0.02 |
| CTVPGLTPKCIY | 0.581 ± 0.042 |
| CTYAPSGRNSHF | 0.7656 ± 0.0035 |
| CVDAFLVRLVFM | 0.568 ± 0.013 |
| CVGLGGPPGGCG | 0.603 ± 0.091 |
| CVIVCETYFQCA | 0.53 ± 0.0088 |
| CVLRTSQPSCPG | 0.627 ± 0.023 |
| CVLSFVRGCLGA | 0.587 ± 0.067 |

| Sequence | protein stability index |
| --- | --- |
| CVRPSFMSRSLR | 0.719 ± 0.064 |
| CVRRKYIGGGEG | 0.673 ± 0.025 |
| CVSTYLTCSITS | 0.54 ± 0.022 |
| CWGVGGRTVING | 0.671 ± 0.049 |
| CYAVEACWASCA | 0.597 ± 0.0087 |
| CYMFFNPSFNRR | 0.712 ± 0.017 |
| CYPFSGLWPPPP | 0.717 ± 0.018 |
| CYVGALQKCGTR | 0.674 ± 0.01 |
| DAELYLPSPTRL | 0.666 ± 0.064 |
| DAGRLLIVSVDS | 0.662 ± 0.036 |
| DAPEKQDKHINE | 0.719 ± 0.088 |
| DCFSASIHYCPS | 0.714 ± 0.059 |
| DCLRQTVPEGAM | 0.723 ± 0.069 |
| DCYFNVHFKSIG | 0.654 ± 0.074 |
| DDATLAVCRGWV | 0.731 ± 0.028 |
| DDFPNKHVEPKA | 0.658 ± 0.014 |
| DDGGSVTERDKS | 0.649 ± 0.007 |
| DDPGPSTHPRSA | 0.63 ± 0.0069 |
| DDWCLVGGLCDC | 0.684 ± 0.033 |
| DDWNLQEAQSLY | 0.703 ± 0.053 |
| DERREADLYPGE | 0.648 ± 0.059 |
| DERSWLPLFFST | 0.695 ± 0.035 |
| DESWCVPCPSSL | 0.648 ± 0.0065 |
| DETRQTYRNRKG | 0.728 ± 0.12 |
| DEVLVSGGKWWE | 0.73 ± 0.1 |
| DFCPVYRVIIWN | 0.646 ± 0.029 |

| Sequence | protein stability index |
| --- | --- |
| DFSNDCLRVLGD | 0.673 ± 0.021 |
| DFSSLIISFPFI | 0.627 ± 0.059 |
| DFVGVVGFLVAG | 0.65 ± 0.032 |
| DGARECRDDVCS | 0.675 ± 0.017 |
| DGAVRLGVGGLG | 0.682 ± 0.041 |
| DGCLTKPGQCHG | 0.646 ± 0.013 |
| DGGGGGGAPRVR | 0.715 ± 0.11 |
| DGGRGQGMLGGS | 0.662 ± 0.063 |
| DGGSGQGMFGGS | 0.611 ± 0.039 |
| DGKNSGHGLAKT | 0.702 ± 0.087 |
| DGSFWKGQGAGV | 0.671 ± 0.011 |
| DGTTAIAGPHPT | 0.629 ± 0.052 |
| DGVQTVPFSCRL | 0.773 ± 0.28 |
| DHIALIWGCSNF | 0.703 ± 0.06 |
| DIAFFEGSGGTM | 0.675 ± 0.096 |
| DIRRSSMFKPKS | 0.702 ± 0.074 |
| DIYNRNKRRDIT | 0.644 ± 0.0067 |
| DKGTDKDDVKIM | 0.686 ± 0.011 |
| DLCLRSTLPLFL | 0.585 ± 0.016 |
| DLCSPWGVDGVK | 0.696 ± 0.00079 |
| DLILECRYEVGV | 0.667 ± 0.053 |
| DLLAVPALTLHL | 0.677 ± 0.14 |
| DLLYGLAMSLSN | 0.704 ± 0.012 |
| DLQKKKEILSQK | 0.707 ± 0.029 |
| DLSFVLAPFVSP | 0.6683 ± 0.0038 |
| DLSVSDGCVAFG | 0.64 ± 0.048 |

| Sequence | protein stability index |
| --- | --- |
| DLTRALQAGHDR | 0.695 ± 0.039 |
| DLVNTVCTVLDN | 0.6836 ± 0.0039 |
| DLWTRGAVHRKA | 0.6756 ± 0.0061 |
| DMDLAVTRHIRS | 0.718 ± 0.1 |
| DPAHPRPFDCPL | 0.709 ± 0.013 |
| DPLIILLSSVKL | 0.718 ± 0.0099 |
| DPPPLPPAHSAS | 0.658 ± 0.034 |
| DPVGFSEMYLRV | 0.705 ± 0.0078 |
| DQLETTSAPLPG | 0.711 ± 0.044 |
| DQRRKKKPIKGN | 0.736 ± 0.12 |
| DQRRWLWGGILK | 0.707 ± 0.018 |
| DRFLPPALVMYI | 0.566 ± 0.038 |
| DRGWPHTYNTIL | 0.639 ± 0.1 |
| DRHLNRPRVKKR | 0.758 ± 0.076 |
| DRPDLVLAGVCG | 0.756 ± 0.06 |
| DRRETASGVSVR | 0.682 ± 0.025 |
| DRRRVIIKENKA | 0.675 ± 0.024 |
| DRTNIIGVIDDL | 0.753 ± 0.05 |
| DRVGGCESRAGR | 0.651 ± 0.04 |
| DSFGSERYEPCK | 0.622 ± 0.0097 |
| DSFLFVPREVAD | 0.687 ± 0.013 |
| DSRFMLYIHSSR | 0.7132 ± 0.0038 |
| DSSGATGLLYML | 0.746 ± 0.022 |
| DSSYVYHFRCVS | 0.62055 ± 0.00019 |
| DTDDARGVWGSV | 0.7151 ± 0.0058 |
| DTFLGSLFIFIR | 0.522 ± 0.011 |

| Sequence | protein stability index |
| --- | --- |
| DTSENSVKFTKV | 0.733 ± 0.075 |
| DTVTGNWGVGLG | 0.657 ± 0.02 |
| DTWRADKRGMKV | 0.662 ± 0.052 |
| DVAEAGPRPPPT | 0.755 ± 0.091 |
| DVFCFWCVSGFV | 0.651 ± 0.082 |
| DVGISICLLHGA | 0.6664 ± 0.002 |
| DVGIVPGVFWWV | 0.738 ± 0.054 |
| DVISRSTRIMGE | 0.617 ± 0.018 |
| DVLESPVLYPTN | 0.70948 ± 7.6e-05 |
| DVSSRDLCWLVC | 0.6422 ± 0.0052 |
| DVVFRLAFTDFC | 0.693 ± 0.021 |
| DVVGRGRGPVRL | 0.802 ± 0.033 |
| DVYFHTRSCGTP | 0.688 ± 0.016 |
| DVYLVGLGVWSS | 0.668 ± 0.035 |
| DWVLGRRDTRKP | 0.752 ± 0.025 |
| DWYSGVTYGPCS | 0.78 ± 0.062 |
| DYRTLGPAPDKS | 0.74 ± 0.035 |
| EAGRRVGARRVG | 0.689 ± 0.059 |
| EAKKKKRRDRKE | 0.621 ± 0.029 |
| EALKCFADAYTC | 0.661 ± 0.063 |
| EAQWRGVRHHSR | 0.641 ± 0.036 |
| EARRGTAGGQKK | 0.626 ± 0.039 |
| EASSRITFGLII | 0.698 ± 0.041 |
| ECGAGRVYGDPW | 0.652 ± 0.063 |
| EEGAGLLWSAVG | 0.641 ± 0.014 |
| EEGVARYVERWV | 0.675 ± 0.0075 |

| Sequence | protein stability index |
| --- | --- |
| EERGESRGWRVK | 0.604 ± 0.045 |
| EERHAEPRNCMF | 0.773 ± 0.015 |
| EEVAISFFFLSL | 0.468 ± 0.055 |
| EEWGSLEWTAGR | 0.778 ± 0.019 |
| EEYFFVNLFFAS | 0.752 ± 0.085 |
| EGACPFLSFRGF | 0.658 ± 0.024 |
| EGGESRGKGYRS | 0.691 ± 0.025 |
| EGGGAGGLMRPE | 0.65 ± 0.016 |
| EGGGGGAGDARR | 0.685 ± 0.017 |
| EGGGGVEGAAWG | 0.694 ± 0.022 |
| EGGGWGRYDGFG | 0.69378 ± 9.6e-05 |
| EGGPRTGGRGSR | 0.67 ± 0.035 |
| EGHREARGGMAR | 0.673 ± 0.018 |
| EGINVEICISLL | 0.573 ± 0.083 |
| EGMENECDLRIK | 0.74 ± 0.066 |
| EGPPYSRYKGGS | 0.645 ± 0.11 |
| EGRGQRGARAAQ | 0.7181 ± 0.0034 |
| EGVSNGCAILLF | 0.673 ± 0.029 |
| EGWPGGRGGAGL | 0.614 ± 0.032 |
| EIGWEGLEGRGG | 0.756 ± 0.11 |
| EIGWTEGGECVG | 0.632 ± 0.051 |
| EKGAEGDHGEVR | 0.678 ± 0.017 |
| EKGRVGLKIIKE | 0.695 ± 0.038 |
| EKGWFDLGGCQV | 0.723 ± 0.035 |
| EKHLKKEIQIKK | 0.76 ± 0.07 |
